These results are taken from publication PMC3378601.

In assay [1] the target is NM, the prion domain (N and M domains) of the yeast translation termination factor Sup35, untagged (yeast) (UniProt P05453).
Assay [2] shares this target. The source holds these as a separate data set.
Assay [3] shares this target. The source holds these as a separate data set.

Chain of NM, the prion domain (N and M domains) of the yeast translation termination factor Sup35, untagged (yeast) (P05453 1-253): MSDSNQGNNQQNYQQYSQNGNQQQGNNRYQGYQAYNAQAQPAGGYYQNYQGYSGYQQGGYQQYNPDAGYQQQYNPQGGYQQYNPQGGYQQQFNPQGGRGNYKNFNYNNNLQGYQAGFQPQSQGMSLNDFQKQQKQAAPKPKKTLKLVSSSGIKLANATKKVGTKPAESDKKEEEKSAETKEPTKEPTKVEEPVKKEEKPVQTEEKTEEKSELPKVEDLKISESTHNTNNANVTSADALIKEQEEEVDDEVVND

“Hsp26, yeast small heat shock protein (from UniProt P15992 1-214) (natural protein)”: in assay [1], the inhibition of NM (5 µM) fibrillization seeded by preformed NM fibers (5% wt/wt), 12 h at 25°C, ThT fluorescence; IC50 of Hsp26 worked out at 1900 nM. Besides, the inhibition of seeded NM fibrillization by Hsp26 pretreated at 45°C for 10 min, ThT fluorescence; IC50 in assay [2] was greater than 24000 nM. The same substance yielded a pyrene excimer fluorescence of fibers of single cysteine NM mutants after 60 min with Hsp26 (10 µM); reduction at N-terminal positions 2 and 7 (slightly reduced in Head 21-38 and Tail 86-106) in assay [3] of 2 fold.
